This note sets out measurements from publication PMC8775495.

The target of one experiment is WA20_H86K. Description: not stated; in solution; shown in Figure S1, whose legend was not shown.
Experiment [1] addresses recombinant Agrocybe cylindracea galectin (Agrocybe cylindracea). The experiment is described as above.

In the case of WA20_H86K, the stoichiometry N in the experiment with WA20_H86K turned out to be 2.
Turning to “recombinant Agrocybe cylindracea galectin (natural protein)”, the stoichiometry N in experiment [1] came out at 2.

What is called stoichiometry N is the number of molecules, sites or subunits per partner or assembly.
